Columns and labels:
Assay in all cases: cleavage_in_vitro
[1] = tested on: T1, BsmBI (Bacillus stearothermophilus); settings: NEB4, 55 C, Mg2+
T1 sequence: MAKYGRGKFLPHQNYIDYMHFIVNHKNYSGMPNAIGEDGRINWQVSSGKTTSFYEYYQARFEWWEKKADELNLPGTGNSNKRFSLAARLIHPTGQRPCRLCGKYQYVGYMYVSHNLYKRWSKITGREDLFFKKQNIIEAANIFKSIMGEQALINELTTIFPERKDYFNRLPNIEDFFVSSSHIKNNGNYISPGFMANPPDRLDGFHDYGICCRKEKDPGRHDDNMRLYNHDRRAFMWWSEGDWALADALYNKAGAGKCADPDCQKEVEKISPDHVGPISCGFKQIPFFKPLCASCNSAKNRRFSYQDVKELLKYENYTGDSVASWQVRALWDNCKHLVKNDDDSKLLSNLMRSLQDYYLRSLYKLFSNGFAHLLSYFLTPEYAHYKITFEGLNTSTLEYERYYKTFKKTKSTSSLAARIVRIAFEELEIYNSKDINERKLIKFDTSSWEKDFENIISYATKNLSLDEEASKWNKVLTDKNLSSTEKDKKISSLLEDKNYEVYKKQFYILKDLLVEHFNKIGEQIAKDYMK

BstXI = settings: NEB4, 55 C, Mg2+
[2] = tested on: T2, NcoI (Nocardia corallina); settings: NEB4, 37 C, Mg2+
T2 sequence: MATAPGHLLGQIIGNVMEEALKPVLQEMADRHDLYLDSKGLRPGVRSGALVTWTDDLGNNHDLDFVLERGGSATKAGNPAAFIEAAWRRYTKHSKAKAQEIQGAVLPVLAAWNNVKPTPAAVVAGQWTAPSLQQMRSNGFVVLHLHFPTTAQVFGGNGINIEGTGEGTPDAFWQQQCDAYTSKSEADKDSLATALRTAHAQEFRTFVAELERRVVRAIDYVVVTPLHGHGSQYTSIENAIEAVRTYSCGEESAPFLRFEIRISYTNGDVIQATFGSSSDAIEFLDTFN

## lambda DNA
[1]
  activity (fidelity index): 4
BstXI
  activity (fidelity index): 4
[2]
  activity (fidelity index): 32

Source: US20130115677
